In paper PMC2291563, “SAM Domain-Based Protein Oligomerization Observed by Live-Cell Fluorescence Fluctuation Spectroscopy” (PLoS ONE, 2008):

T1: Ste50-mCherry (budding yeast (S288C background), UniProt P25344 1-346)
T1 construct: Ste50, SAM domain protein, budding yeast; tagged at the chromosomal locus; source: expressed from its chromosomal locus in live yeast cells (S288C background); not shown: mCherry, C-terminal, kept
T1 sequence (looked up): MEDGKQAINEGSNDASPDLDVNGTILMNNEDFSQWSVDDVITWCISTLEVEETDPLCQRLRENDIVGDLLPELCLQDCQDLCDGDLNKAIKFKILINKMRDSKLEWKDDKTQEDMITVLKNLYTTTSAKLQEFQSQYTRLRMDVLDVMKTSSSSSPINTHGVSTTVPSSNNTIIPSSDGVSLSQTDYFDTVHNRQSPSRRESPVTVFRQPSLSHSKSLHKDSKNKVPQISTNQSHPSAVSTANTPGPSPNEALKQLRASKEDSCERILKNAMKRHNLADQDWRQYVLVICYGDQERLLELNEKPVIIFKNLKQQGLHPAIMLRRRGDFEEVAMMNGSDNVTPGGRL

B1: Ste50-GFP (natural protein, budding yeast (S288C background), UniProt P25344 1-346, looked up)
chain: T1 sequence (looked up)
notes: Ste50, SAM domain protein, budding yeast; tagged at the chromosomal locus; source: expressed from its chromosomal locus in live yeast cells (S288C background); not shown: GFP, C-terminal, kept
B2: Ste11-GFP (natural protein, budding yeast (S288C background), UniProt P23561 1-717, looked up)
chain: MEQTQTAEGTDLLIGDEKTNDLPFVQLFLEEIGCTQYLDSFIQCNLVTEEEIKYLDKDILIALGVNKIGDRLKILRKSKSFQRDKRIEQVNRLKNLMEKVSSLSTATLSMNSELIPEKHCVIFILNDGSAKKVNVNGCFNADSIKKRLIRRLPHELLATNSNGEVTKMVQDYDVFVLDYTKNVLHLLYDVELVTICHANDRVEKNRLIFVSKDQTPSDKAISTSKKLYLRTLSALSQVGPSSSNLLAQNKGISHNNAEGKLRIDNTEKDRIRQIFNQRPPSEFISTNLAGYFPHTDMKRLQKTMRESFRHSARLSIAQRRPLSAESNNIGDILLKHSNAVDMALLQGLDQTRLSSKLDTTKIPKLAHKRPEDNDAISNQLELLSVESGEEEDHDFFGEDSDIVSLPTKIATPKNWLKGACIGSGSFGSVYLGMNAHTGELMAVKQVEIKNNNIGVPTDNNKQANSDENNEQEEQQEKIEDVGAVSHPKTNQNIHRKMVDALQHEMNLLKELHHENIVTYYGASQEGGNLNIFLEYVPGGSVSSMLNNYGPFEESLITNFTRQILIGVAYLHKKNIIHRDIKGANILIDIKGCVKITDFGISKKLSPLNKKQNKRASLQGSVFWMSPEVVKQTATTAKADIWSTGCVVIEMFTGKHPFPDFSQMQAIFKIGTNTTPEIPSWATSEGKNFLRKAFELDYQYRPSALELLQHPWLDAHII
notes: Ste11, MAP kinase kinase kinase with a SAM domain, budding yeast; tagged at the chromosomal locus; source: expressed from its chromosomal locus in live yeast cells (S288C background); not shown: GFP, C-terminal, kept

Columns and labels:
[1] = biological target: the molecule itself; experiment: photon counting histogram (1dPCH), constrained two-component fit; live yeast cells at high salt (NaCl); monomer brightness fixed, oligomer brightness and numbers freely varied; subunits estimated from a linear extrapolation of GFP brightness
[2] = biological target: the molecule itself; experiment: photon counting histogram (1dPCH), constrained two-component fit; live yeast cells treated with α-factor; monomer brightness fixed, oligomer brightness and numbers freely varied; subunits estimated from a linear extrapolation of GFP brightness
[3] = biological target: the molecule itself; experiment: photon counting histogram (1dPCH), constrained two-component fit; live yeast cells, cycling; monomer brightness fixed, oligomer brightness and numbers freely varied; subunits estimated from a linear extrapolation of GFP brightness
Ste50-mCherry = biological target: T1, Ste50-mCherry; experiment: two-dimensional photon counting histogram (2dPCH); live yeast cells with Ste11-GFP and Ste50-mCherry, cytosolic pool; 50 µs bins; two-component fit; cycling cells, also after α-factor or NaCl; conditions: partners not purified

Binder | stoichiometry N [1] | stoichiometry N [2] | stoichiometry N [3] | stoichiometry N (Ste50-mCherry) [Ste11 per Ste50]
B1 | 3 to 4 | ~4 | 5 to 6 | –
B2 | – | – | – | 2
